# Entries after “also recorded” stand apart in the source; their conditions may differ.
# B1: adiponectin: adipocyte-specific secretory protein of 244 amino acid residues; human recombinant peptide leader deficient protein, 32 kD monomer with multimers (protein)
# chain: ETTTQGPGVLLPLPKGACTGWMAGIPGHPGHNGAPGRDGRDGTPGEKGEKGDPGLIGPKGDIGETGVPGAEGPRGFPGIQGRKGEPGEGAYVYRSAFSVGLETYVTIPNMPIRFTKIFYNQQNHYDGSTGKFHCNIPGLYYFAYHITVYMKDVKVSLFKKDKAMLFTYDQYQENNVDQASGSVLLHLEVGDQVWLQVYGEGERNGLYADNDNDSTFTGFLLYHDTN
# How the values were obtained:
# [1] = test system: C/EBP-α and PPAR-γ in BMS2 preadipocytes; test: Adipocyte gene expression analysis (Northern blot) in BMS2 cells; type: cell-based
# Protocol: (§1) Poly(A)^+mRNA was prepared from the indicated samples using oligo(dT) columns (Ambion Inc, Austin, Tex.). Aliquots oifpoly(A)^+ mRNA (2 μg) were denatured in formamide and formaldehyde at 65 C and electrophoresed on formaldehyde-containing agarose gels. After capillary transfer to nylon membranes (MSI, Westbourough, Mass.), the RNA was crosslinked by UV exposure. cDNA probes for CCAAT/enhancer binding protein-α(C/EBP-α) and adipocyte P2 (aP2) were obtained from ResGen™ Invitrogen (Huntsville, Ala.) and American Type Culture Collection (Manassas, Va.) respectively. Probes with sizes corresponding to PPAR-γ, COX-1 and COX-2 were prepared as PCR products and all probes were radiolabeled with [α-^32P]dCTP using the random prime labeling system (Redi Prime™ II) purchased from Amersham Pharmacia Biotech.
# (§2) Differentiation of BMS2 cells to adipocytes was achieved by treatment with 5 μg/ml insulin and 0.5 mM MIBX for 10 days. Differentiation of MS5 cells to adipocytes was achieved by treatment with 5 μg/ml insulin alone for 15 days. Cultures were treated with adiponectin, PGE2 or Dup-697 from the time of culture initiation. At the end of this period, cultures were photographed and then stained with Nile red to detect lipid accumulation indicative of adipocyte differentiation. The extent of differentiation was estimated by flow cytometry (FACScan; Becton-Dickinson, San Jose, Calif.).
# 3T3-L1 cells = test: Adipocyte generation by 3T3-L1 cell line; type: cell-based; settings: insulin as only inducing agent; adiponectin 10 μg/ml, PGE2 1×10^-6 M
# Source text: Normal human bone marrow was collected by biopsy from the posterior iliac crest of healthy young volunteers with informed consent, and used for immunohistchemical analysis of adiponectin. BMS2 and 3T3-L1 cells were maintained in D-MEM (high glucose) supplemented with 10% fetal calf serum (FCS) (HyClone, Logan, Utah). MS5 cells were maintained in α-MEM medium supplemented with 10% FCS. Balb/c mice at 3-6 weeks old: were obtained from Charles Rivers Breeding Labatories (Wilmington, Me.). B6,129S-^Ptgs2tm1Jed (COX-2^+/−) mice and C57BL/6 mice (3-5 weeks old) were purchased from the Jackson Laboratory (Bar Harbor, Me.). High mortality and unavailability precluded use of homozygous COX^−/− animals in these experiments, but a single targeted allele abrogated preadipocyte responses to adiponectin.
# Bone marrow cultures represent a complex mixture of hematopoietic cells that mature through interactions with an adherent stromal layer composed of fibroblasts, adipocytes, macrophages and endothelial cells.
# BMS2 cells = test: Adipocyte differentiation of BMS2 cells; type: cell-based; settings: for fat cell formation (adipogenesis) of BMS2 cells: 5 μg/ml insulin and 0.5 mM MIBX, 10 days, proteins 10 μg/ml, PGE2 and Dup-697 1×10^-6 M, microscopy
# Protocol: as §2
# MS5 cells = test: Adipocyte differentiation of MS5 cells; type: cell-based; settings: 5 μg/ml insulin, 15 days; adiponectin 10 μg/ml
# Protocol: as §2
# [2] = test system: bone marrow cells of heterozygous knockout COX-2+/- mice; test: Adherent bone marrow cell cultures, COX-2+/- mice; type: cell-based, mouse; settings: cells derived from COX-2+/- animals, treated weekly for 6 weeks
# Protocol: (§3) Adherent bone marrow cell cultures were established with heterozygous knockout COX-2^+/− mice or normal C57BL/6 mice. BM cells were suspended at 2×10^5 per 6 ml of Dexter culture media and seeded in 25-cm^2 flasks. This cell concentration gives rise to adherent stromal layers without myeloid cell growth. Cultures were treated with adiponecitin or BSA at the time of culture initiation and weekly thereafter for 6 weeks.
# [3] = test system: normal C57BL/6 bone marrow; test: Adherent bone marrow cell cultures, normal mice; type: cell-based, mouse; settings: treated weekly for 6 weeks
# Protocol: as §3
# [4] = test system: CFU-granulocyte-macrophage, CFU-macrophage, CFU-granulocyte, BFU-erythroid, mixed erythroid-myeloid CFU; settings: cited from earlier work
# myeloid cell lines = settings: cited from earlier work
# cultured macrophages = settings: cited from earlier work
# MS5 or BMS2 cells = test: Enzyme-immunoassay for PGE2 in culture supernatants; type: cell-based; settings: confluent BMS2 or MS5 cells, versus BSA
# Protocol: Confluent MS5 or BMS2 cells prepared in 24-well plates were incubated in 500 μl of media with or without adiponectin. Supernatants from these cultures were examined for the presence of PGE2 using an enzyme-immunoassay kit purchased from Cayman Chemical.
# [5] = test system: bone marrow cells of normal Balb/c mice (LTBMC); test: Long-term bone marrow cultures (LTBMC, Dexter cultures); type: cell-based, mouse
# Protocol: LTBMC that support formation of myeloid cells (Dexter cultures) were initiated and maintained by published methods (Dexter, T. M. and Testa, N. G. Methods Cell Biol. 14:387-405 (1976)). Bone marrow cells of normal Balb/c mice (12×10^6) were cultured in 25-cm^2 flasks in 5% CO2 at 33 C. The medium consisted of α-MEM supplemented with 100 nM hydrocortisone and 20% horse serum (HyClone). Cultures were treated with adiponectin or bovine serum albumin (BSA) beginning at culture initiation and thereafter weekly for 6 weeks. In some experiments, adiponectin was omitted from the media after 6 weeks of culture, and maintained for another 6 weeks with medium alone.
# [6] = test system: MS5 or BMS2 stromal cell clones; test: RT-PCR / Northern blot of transcripts in adiponectin-treated preadipocytes; type: cell-based
# Protocol: Total RNA was isolated from MS5 or BMS2 cells treated with adiponectin for various periods using TRIzol Reagent (GIBCO-BRL, Grand Island, N.Y.) and suspended in DEPC-treated water. After treating total RNA with DNase (GIBCO-BRL), cDNA was made using random hexamers and moloney murine leukemia virus reverse transcriptase (GIBCO-BRL). For PCR, 10 μl of the RT mixtures described above were added to PCR buffer containing 1.5 mM MgCl2, 1 U Taq polymerase (Perkin Elmer, Norwalk, Conn.), 2 mM each dNTP, and relevant sense and antisense primers. The DNA in the PCR reaction mixtures was amplified using 25 to 35 cycles of 94 C for 1 min, 55 C for 2 min and 72 C for 3 min. The oligonucleotide primers used for these reactions were 5′-[…]-3′ (SEQ ID NO:5) and 5′-[…]-3′ (SEQ ID NO:6) for COX-2, and 5′-[…]-3′ (SEQ ID NO:7) and 5′-[…]-3′ (SEQ ID NO:8) for COX-1. Primers for TNF-α, TGF-β, interferon (IFN)-α/β/γ, and limitin were also prepared and used in this study.
# as §1
# [7] = BMS2 cells, Nile red staining, flow cytometry
molecule,measurement,setting,value
"CCCCC[C@H](O)/C=C/[C@H]1[C@H](O)CC(=O)[C@@H]1C/C=C\CCCC(=O)O [PGE2, prostaglandin E2, reference compound]",increases of C/EBP-α and PPAR-γ expression induced by insulin and MIBX,[1],strongly inhibited
same,generation of adipocytes by 3T3-L1 line,3T3-L1 cells,minimally affected
same,fat cell formation (adipogenesis) of BMS2 cells,BMS2 cells,blocked
same,lipid accumulation induced by insulin and MIBX,BMS2 cells; [7],completely blocked
B1,suppression of adipocyte differentiation of MS5 clone,MS5 cells,substantial suppression
same,effect on adipogenesis in adherent bone marrow cell cultures,[2],minimum effect; also recorded: negligible
same,adipogenesis in adherent bone marrow cell cultures,[3],blocked adipogenesis
same,increases of C/EBP-α and PPAR-γ expression induced by insulin and MIBX,[1],strongly inhibited
same,effect of adiponectin on C/EBP-α and PPAR-γ expression with Dup-697,"[1]; insulin and MIBX, Dup-697 1×10^-6 M",abrogated
same,"colony formation from CFU-granulocyte-macrophage, CFU-macrophage and CFU-granulocyte",[4],suppresses colony formation
same,colony formation of burst-forming units-erythroid or mixed erythroid-myeloid CFU,[4],no effect
same,number of myeloid cell lines whose proliferation is inhibited,myeloid cell lines,4 of 9
same,lipopolysaccharide-induced production of tumor necrosis factor-α by cultured macrophages,cultured macrophages,significantly inhibits
same,phagocytic activity of cultured macrophages,cultured macrophages,significantly inhibits
same,increase in PGE2 secretion,MS5 or BMS2 cells,approximately two-fold
same,generation of adipocytes by 3T3-L1 line,3T3-L1 cells,only slightly inhibited; also recorded: minimally affected
same,fat cell formation in LTBMC,"[5]; adiponectin 10 μg/ml in medium, from culture initiation and weekly for 6 weeks",completely inhibited
same,influence on myelopoiesis in LTBMC,"[5]; adiponectin 10 μg/ml, conditions that favor myeloid cell production",no influence
same,reversibility of the negative influence on fat cell formation,"[5]; adiponectin omitted after 6 weeks, another 6 weeks with medium alone",reversible
same,fat cell formation (adipogenesis) of BMS2 cells,BMS2 cells,substantial suppression
same,fat cell formation (adipogenesis) of BMS2 cells,BMS2 cells; listed as Adiponectin,blocked adipogenesis
same,lipid accumulation induced by insulin and MIBX,BMS2 cells; [7],completely blocked
same,response (block of lipid accumulation) to adiponectin with COX-2 inhibitor included,"BMS2 cells; BMS2 cells, Nile red staining, flow cytometry, Dup-697 1×10^-6 M",substantially blocked
same,inhibition of BMS2 fat cell formation by adiponectin with Dup-697 present,"BMS2 cells; insulin and MIBX, COX-2 inhibitor Dup-697 1×10^-6 M present",not observed
same,"basal expression of TGF-β, interferon-α/β/γ and limitin",[6],not obviously influenced
same,transcripts corresponding to TNF-α or interferon-β,"[6]; MS5 cells, adiponectin added to cultures",not detectable
same,transcripts for COX-2,"[6]; MS5 or BMS2 stromal cell clones, confirmed by Northern blot",upregulated

# From patent publication US20020132773A1, “Methods for reducing fat by administration of adiponectin” (Oklahoma Medical Research Foundation, priority 2001, published 2002)
